Test results taken from patent US9260754B2, “Connexin mutation detection for lymphatic variation and disease” (University of Pittsburgh—Of the Commonwealth System of …, priority 2010, dated 2016).
“Also recorded” adds a separate entry of the source.

B1: G183C: Cx47 missense mutant G183C (547G>T), intracellular loop, construct expressed in HeLa cells (protein, listed as Homo sapiens)
chain: MSWSFLTRLLEEIHNHSTFVGKVWLTVLVVFRIVLTAVGGEAIYSDEQAKFTCNTRQPGCDNVCYDAFAPLSHVRFWVFQIVVISTPSVMYLGYAVHRLARASEQERRRALRRRPGPRRAPRAHLPPPHAGWPEPADLGEEEPMLGLGEEEEEEETGAAEGAGEEAEEAGAEEACTKAVGADCKAAGTPGPTGQHDGRRRIQREGLMRVYVAQLVARAAFEVAFLVGQYLLYGFEVRPFFPCSRQPCPHVVDCFVSRPTEKTVFLLVMYVVSCLCLLLNLCEMAHLGLGSAQDAVRGRRGPPASAPAPAPRPPPCAFPAAAAGLACPPDYSLVVRAAERARAHDQNLANLALQALRDGAAAGDRDRDSSPCVGLPAASRGPPRAGAPASRTGSATSAGTVGEQGRPGTHERPGAKPRAGSEKGSASSRDGKTTVWI
B2: S45L: Cx47 missense mutant S45L (134C>T), extracellular loop 1, construct expressed in HeLa cells (protein, listed as Homo sapiens)
chain: MSWSFLTRLLEEIHNHSTFVGKVWLTVLVVFRIVLTAVGGEAIYLDEQAKFTCNTRQPGCDNVCYDAFAPLSHVRFWVFQIVVISTPSVMYLGYAVHRLARASEQERRRALRRRPGPRRAPRAHLPPPHAGWPEPADLGEEEPMLGLGEEEEEEETGAAEGAGEEAEEAGAEEACTKAVGADGKAAGTPGPTGQHDGRRRIQREGLMRVYVAQLVARAAFEVAFLVGQYLLYGFEVRPFFPCSRQPCPHVVDCFVSRPTEKTVFLLVMYVVSCLCLLLNLCEMAHLGLGSAQDAVRGRRGPPASAPAPAPRPPPCAFPAAAAGLACPPDYSLVVRAAERARAHDQNLANLALQALRDGAAAGDRDRDSSPCVGLPAASRGPPRAGAPASRTGSATSAGTVGEQGRPGTHERPGAKPRAGSEKGSASSRDGKTTVWI
B3: R257C: Cx47 missense mutant R257C (769C>T), extracellular loop 2, construct expressed in HeLa cells (protein, listed as Homo sapiens)
chain: MSWSFLTRLLEEIHNHSTFVGKVWLTVLVVFRIVLTAVGGEAIYSDEQAKFTCNTRQPGCDNVCYDAFAPLSHVRFWVFQIVVISTPSVMYLGYAVHRLARASEQERRRALRRRPGPRRAPRAHLPPPHAGWPEPADLGEEEPMLGLGEEEEEEETGAAEGAGEEAEEAGAEEACTKAVGADGKAAGTPGPTGQHDGRRRIQREGLMRVYVAQLVARAAFEVAFLVGQYLLYGFEVRPFFPCSRQPCPHVVDCFVSCPTEKTVFLLVMYVVSCLCLLLNLCEMAHLGLGSAQDAVRGRRGPPASAPAPAPRPPPCAFPAAAAGLACPPDYSLVVRAAERARAHDQNLANLALQALRDGAAAGDRDRDSSPCVGLPAASRGPPRAGAPASRTGSATSAGTVGEQGRPGTHERPGAKPRAGSEKGSASSRDGKTTVWI
B4: P313L: Cx47 missense mutant P313L (938C>T), C-terminal, construct expressed in HeLa cells (protein, listed as Homo sapiens)
chain: MSWSFLTRLLEEIHNHSTFVGKVWLTVLVVFRIVLTAVGGEAIYSDEQAKFTCNTRQPGCDNVCYDAFAPLSHVRFWVFQIVVISTPSVMYLGYAVHRLARASEQERRRALRRRPGPRRAPRAHLPPPHAGWPEPADLGEEEPMLGLGEEEEEEETGAAEGAGEEAEEAGAEEACTKAVGADGKAAGTPGPTGQHDGRRRIQREGLMRVYVAQLVARAAFEVAFLVGQYLLYGFEVRPFFPCSRQPCPHVVDCFVSRPTEKTVFLLVMYVVSCLCLLLNLCEMAHLGLGSAQDAVRGRRGPPASAPAPAPRPLPCAFPAAAAGLACPPDYSLVVRAAERARAHDQNLANLALQALRDGAAAGDRDRDSSPCVGLPAASRGPPRAGAPASRTGSATSAGTVGEQGRPGTHERPGAKPRAGSEKGSASSRDGKTTVWI

Columns and labels:
Type in all cases: cell-based, human
[1] = system: HeLa cells; assay: Cx47 gap junction plaque formation by immunofluorescent confocal microscopy in transfected HeLa cells; details: near confluent transfected HeLa cells
Procedure: Human neonatal foreskin was collected anonymously as discarded tissue according to an IRB protocol. Samples were collected immediately after harvest in DMEM, then fixed in 2% paraformaldehyde for 2 hrs, then stored in 30% sucrose in 1×PBS overnight for cryosectioning, and sectioned in 6 μm slices at −30° C. Transfected (stable and transient) and untransfected HeLa cells were grown to near confluence in coverslip bottom dishes. All cells were rinsed with PBS and fixed with 2% paraformaldehyde. Subsequently, tissue and HeLa cells were processed similarly: following permeabilization with 0.1% Triton X, cells were blocked with 2% BSA. A human Cx47 antibody (ab) was obtained from the S. Scherer laboratory: polyclonal rabbit against amino acids 344-399 in the cytoplasmic C-terminal tail; we used human CNS tissue and positive oligodendrocyte staining as a positive control and primary antibody delete and rabbit IgG as negative controls (data not shown). Cx47 ab was diluted in 0.5% BSA in a 1:200 ratio, applied to cells and incubated at RT for one hour. Mouse monoclonal Proxl (Chemicon) was used as a lymphatic marker for the foreskin samples. Cells were incubated with the secondary abs (Donkey Anti-Rabbit Cy5 and Donkey Anti-Mouse Cy3; Invitrogen) for one hour at RT and washed; Draq5 was used as a nuclear marker. HeLa images were acquired with an inverted Olympus Fluoview 1000 Confocal Microscope 100× oil, 1.4 NA objective. Foreskin images were acquired on a Zeiss Meta LSM 510 inverted confocal microscope with 40× oil, 1.3 N.A. objective. LECs (primary human microvascular adult dermal lymphatics; Lonza) were grown in fibronectin coated coverslip bottom MatTeks dishes in EGM™-2 MV—Microvascular Endothelial Cell Medium-2 (Lonza Inc.) to approximately 80% confluence, and prepared similarly but a commercially available (AbCam) Cx47 ab, polyclonal rabbit against amino acids 41-70 in the human sequence was used along with Drag 5 nuclear marker and phalloidin to mark f-actin.
Immunofluorescence microscopy determines the presence or absence of Cx47 gap junction plaques when the constructs are transiently expressed in HeLa cells. Cx plaques reflect a physiologic accumulation of Cx channels in the cell membrane between cells (tens to thousands of channels); thus plaques are indicative of normal trafficking and gap junction formation at the cell membrane.
Immunofluorescence microscopy determines the presence or absence of Cx47 gap junction plaques when the constructs are transiently expressed in HeLa cells. A human Cx47 antibody was obtained: polyclonal rabbit against amino acids 344-399 in the cytoplasmic C-terminal tail (Orthmann-Murphy J L, et al. Mol Cell Neurosci 2007; 34:629-41); we used human CNS tissue and positive oligodendrocyte staining as a positive control and primary antibody delete as a negative control (data not shown). Cultured HeLa cells were routinely fixed and stained with the primary antibodies against Cx47, along with a nuclear marker, and transfected cells were identified by their EGFP signal. Plaques were imaged using an Olympus Fluoview 1000 confocal microscope, 100× oil objective.

[2] = system: HeLa cell pairs; assay: Dual whole cell patch clamp recording of coupling current in transfected HeLa cell pairs; details: for electrical coupling / functional channels in HeLa cell pairs (in words): transfected HeLa cell pairs, voltage step protocol −100 to +100 mV; for elect coupling: Table 3 (Example 2)
Procedure: Coupling currents were recorded using simultaneous double whole-cell patch clamp recordings from isolated pairs of cells that were in contact with one another (determined visually) as previously described. Briefly, the pipette solution consisted of (mM): 130 CsCl, 10 EGTA, 10 HEPES, 3 Mg-ATP, 2 Na-ATP, 0.5 CaCl2, pH 7.3. The culture was bathed in a solution consisting of (mM): 140 NaCl, 5 HEPES, 5 glucose, 4 KCl, 2 CsCl, 2 CaCl2, 2 pyruvate, 1 BaCl2, pH 7.3. Transfected HeLas undergo electrophysiologic analysis in a blinded manner. Pairs of cells were chosen for study only if both expressed the GFP marker indicative of successful transfections; both stable and transient transfectants were analyzed. Patch pipettes were fabricated from borosilicate glass, and coupling currents were amplified by Axopatch 200A amplifiers, filtered at 1 KHz, and digitized at 5 KHz for subsequent analysis using pClamp software (Axon Instruments/Molecular Devices; Sunnyvale, Calif.). All experiments were carried out at room temperature (22° C.). Coupling current was quantified by measuring the peak current recorded in the pair when the neighboring cell received a 100 mV step membrane potential change (in both positive and negative directions). Step changes in membrane potential were delivered to each cell in the pair in sequence and the average current recorded in the neighboring cell was determined and divided by 100 to generate coupling current expressed in pA/mV. Means±SEM were calculated and statistical significance using a one-way analysis of variance and Tukey's post-hoc test, p<0.05.
Coupling current is quantified by measuring the peak current recorded in the pair when the neighboring cell receives a 100 mV step membrane potential change (in both positive and negative directions). Step changes in membrane potential are delivered to each cell in the pair in sequence and the average current recorded in the neighboring cell determined and divided by 100 to generate coupling current expressed in pA/mV (FIG. 6C). Replicate measurements (n=3-6) are made on at least two different days. […] The untransfected HeLa cell pairs also show minimal channel function, as predicted.
Electrophysiologic characteristics of GJIC were measured between HeLa cell pairs transfected with the mutant constructs (as indicated by EGFP expression) by dual whole cell patch clamp recording. All experiments were carried out in a blinded manner. Coupling current is quantified by measuring the peak current recorded in the pair when the neighboring cell receives a 100 mV step membrane potential change (in both positive and negative directions). Step changes in membrane potential are delivered to each cell in the pair in sequence and the average current recorded in the neighboring cell determined and divided by 100 to generate coupling current expressed in pA/mV. Untransfected HeLa cells and cells transfected with empty vector (i.e., no hCx47) were used as additional controls.

[3] = system: HeLa cells; assay: Wound assay (proliferation/migration) in confluent transfected HeLa cells; details: fraction of original wound in HeLa cell monolayer after 24 hrs; mean ± SEM
Procedure: The wound assay, a measure of proliferation/migration, was performed using differential interference contrast time lapse of over 24 hrs using confluent transfected HeLa cells. Analysis was done using TScratch (Geback T, et al. TScratch: a novel and simple software tool for automated analysis of monolayer wound healing assays. Biotechniques 2009; 46:265-74), mean±SEM of at least 10 positions along wound; the scrape width was normalized to the first image for each position. In all cases a two tailed student's T test was applied with p<0.05 considered significant.

[4] = system: HeLa cells; assay: Calcein AM scrape loading and dye transfer in stably transfected HeLa cells; details: for dye transfer: ratio, rate normalized to untransfected HeLa cells, Calcein AM scrape loading, 10 min, stably transfected HeLa, mean ± SEM
Procedure: A confluent monolayer of HeLa cells (untransfected and stably transfected, as described above) was grown in DMEM with 10% FBS in coverslip bottom plates (MatTek) and placed in a temperature controlled microincubator (Zeiss). A 10×, 0.4 NA objective was used to collect DIC and GFP images every 5 seconds for 10 minutes without changing media. A pipette loaded with 1 μl Calcein AM (Invitrogen), a gap junction permissive dye with molecular weight 662, −4 charge when intracellular and fluorescent, was used to create a scrape across the monolayer. At least 5 replicate dishes were analyzed on the same day, and WT hCx47 expressing HeLas were grown and assayed as a concurrent control; assays were performed on at least 2 different batches of HeLa cells on different days. Quantitation of the rate of spread was calculated using MetaMorph, by obtaining integrated intensity at the 10th time point, within the first minute of imaging, and then at the endpoint at 10 min, and subtracting the initial intensity from that at the endpoint. Results are reported as mean and SEM, and tested for significance (p<0.05) using an unpaired Student's t-test.
In these mutants, Cx47 appears to concentrate in the ER. Unlike electrophysiologic measurements, dye transfer assays are used to assess GJIC of relatively large molecules. We also found significant differences in GJIC in HeLa cells overexpressing Cx47 lymphedema associated mutations by assessing rates of dye transfer in a conventional scrape assay using stably transfected HeLa cells normalized to rates in untransfected HeLa cells (FIG. 7D; Table 3). […] It is not surprising that the mutants show some differences in GJIC between the electrophysiologic and dye transfer assays given that they are designed to measure different kinds of transport and that Cx channel permeability is now believed to be governed by factors including molecular shape, charge and size, in addition to channel conformation and composition.

[5] = HeLa cell pairs, 100 mV step, mean ± SEM

Row | Molecule | Cx47 plaque formation (in words) [1] | electrical coupling ([2]; Table 6 (Example 4), HeLa cell pairs, 100 mV step, mean ± SEM) [pA/mV] | electrical coupling / functional channels in HeLa cell pairs (in words) [2] | wound assay [3] | dye transfer [4] | elect coupling [2, 5] [pA/mV] | Calcein AM dye transfer compared to WT-hCx47 transfected HeLa cells (in words) ([4]; stably transfected HeLa cells, scrape assay)
1 | B1 | Cx47 intercellular plaques | 68.6 | increased electrical coupling; also recorded: increased peak coupling currents | 0.68 |  |  | 
2 | B2 | absence; also recorded: fail to demonstrate Cx 47 plaques |  | absence of coupling; also recorded: do not exhibit functional channels |  | 1.11 | 0.1 | 
3 | B3 | absence; also recorded: fail to demonstrate Cx 47 plaques |  | absence of coupling; also recorded: do not exhibit functional channels |  | 2.56 | 0.0 | significantly greater dye transfer
4 | B4 |  |  | well coupled |  | 2.10 | 37.6 | 
